From PMC4629521 come the findings set out here.

A short description of series [1]: cross-linking + SEC.
Series [2] deals with P1Ara, TOMP1 partially dearabinosylated by alpha-L-arabinofuranosidase (tomato). Put plainly: cross-linking + SEC.
The target in series [3] is P1pH2, TOMP1 partially dearabinosylated by pH 2.0 HCl (tomato). Nature of the series: cross-linking + SEC.
In series [4] the test system is Q9FS16. Nature of the series: cross-linking + SEC.
The target of series [5] is RSH, monomeric extensin from Arabidopsis (native) (Arabidopsis) (UniProt Q9FS16). Nature of the series: cross-linking + SEC.
Series [6] concerns the target RSHAra, RSH partially dearabinosylated by alpha-L-arabinofuranosidase (Arabidopsis) (UniProt Q9FS16). Put plainly: cross-linking + SEC.
The target in series [7] is RSHpH2, RSH partially dearabinosylated by pH 2.0 HCl (Arabidopsis) (UniProt Q9FS16). Nature of the series: cross-linking + SEC.
Series [8] has as its target TOMP1, tomato extensin precursor 1 (native) (tomato). Put plainly: cross-linking + SEC.

For the substance “P1Ara, TOMP1 partially dearabinosylated by alpha-L-arabinofuranosidase”, the monomer peak area loss (5~30 min XL) in series [1] worked out at 24.9%.
As to “P1Ara, TOMP1 partially dearabinosylated by alpha-L-arabinofuranosidase (natural protein)”, the initial cross-linking rate in series [2] is 28.5 µg/mL⋅min.
Take “P1pH2, TOMP1 partially dearabinosylated by pH 2.0 HCl”: in series [1], the monomer peak area loss (5~30 min XL) came out at 54.2%.
Take “P1pH2, TOMP1 partially dearabinosylated by pH 2.0 HCl (natural protein)”: the initial cross-linking rate in series [3] was found to be 95.3 µg/mL⋅min.
For “RSH, monomeric extensin from Arabidopsis (native)”, the monomer peak area loss (5~30 min XL) in series [4] was determined as 80.3%.
For “RSH, monomeric extensin from Arabidopsis (native) (from UniProt Q9FS16 28-431) (natural protein)”, the initial cross-linking rate in series [5] amounted to 269 µg/mL⋅min.
Consider “RSHAra, RSH partially dearabinosylated by alpha-L-arabinofuranosidase”, for which the monomer peak area loss (5~30 min XL) in series [4] is 40.1%.
“RSHAra, RSH partially dearabinosylated by alpha-L-arabinofuranosidase (from UniProt Q9FS16 28-431) (natural protein)”: the initial cross-linking rate in series [6] was determined as 85 µg/mL⋅min.
As to “RSHpH2, RSH partially dearabinosylated by pH 2.0 HCl”, the monomer peak area loss (5~30 min XL) in series [4] was 74.2%.
For “RSHpH2, RSH partially dearabinosylated by pH 2.0 HCl (from UniProt Q9FS16 28-431) (natural protein)”, in series [7], the initial cross-linking rate was found to be 223 µg/mL⋅min.
As to “TOMP1, tomato extensin precursor 1 (native)”, the monomer peak area loss (5~30 min XL) in series [1] amounted to 73.9%.
Regarding “TOMP1, tomato extensin precursor 1 (native) (natural protein)”, the initial cross-linking rate in series [8] was 213 µg/mL⋅min.
